Data from article PMC5318870.

Biological target: T1, RSV attachment glycoprotein G (RSV-G Protein, His Tag) (respiratory syncytial virus) (UniProt O36633)
T1 sequence: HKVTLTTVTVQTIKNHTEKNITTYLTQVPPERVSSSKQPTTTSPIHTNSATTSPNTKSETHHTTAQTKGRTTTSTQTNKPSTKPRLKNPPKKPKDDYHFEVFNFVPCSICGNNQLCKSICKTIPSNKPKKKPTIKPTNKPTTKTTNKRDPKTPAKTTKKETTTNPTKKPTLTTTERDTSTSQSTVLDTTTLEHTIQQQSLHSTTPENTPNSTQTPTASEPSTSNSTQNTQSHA
Experiment: fluorescence polarization
Conditions: FP: PBS pH 7.4, 0.5 nM aptamer; filter binding: PBS, BSA, 0.1% Tween 20, 0.1 ug/ml poly(dIdC), 50 nM aptamer, 20 min RT; ALPHA: HBSS, 1 mg/ml BSA, 0.05 ug/ml …

TAGGGAAGAGAAGGACATATGATAGTGCGGTGAGCCGTCGGACATACAAATACTTGACTAGTACATGACCACTTGA [H8 (Alexa Fluor 488)]
Kd: 30 nM
